Target: T1, hMre11-hRad50 protein complex (human, UniProt P49959 2-708; Q92878 1-1312)
T1 construct: Endogenous complex from human cells; It also holds p95 and a protein of about 400 kDa; also called hMre11/hRad50 complex; hRad50/hMre11 complex
Assay: co-immunoprecipitation

T1 sequence (P49959 2-708 limits assumed, chain 1 of 2): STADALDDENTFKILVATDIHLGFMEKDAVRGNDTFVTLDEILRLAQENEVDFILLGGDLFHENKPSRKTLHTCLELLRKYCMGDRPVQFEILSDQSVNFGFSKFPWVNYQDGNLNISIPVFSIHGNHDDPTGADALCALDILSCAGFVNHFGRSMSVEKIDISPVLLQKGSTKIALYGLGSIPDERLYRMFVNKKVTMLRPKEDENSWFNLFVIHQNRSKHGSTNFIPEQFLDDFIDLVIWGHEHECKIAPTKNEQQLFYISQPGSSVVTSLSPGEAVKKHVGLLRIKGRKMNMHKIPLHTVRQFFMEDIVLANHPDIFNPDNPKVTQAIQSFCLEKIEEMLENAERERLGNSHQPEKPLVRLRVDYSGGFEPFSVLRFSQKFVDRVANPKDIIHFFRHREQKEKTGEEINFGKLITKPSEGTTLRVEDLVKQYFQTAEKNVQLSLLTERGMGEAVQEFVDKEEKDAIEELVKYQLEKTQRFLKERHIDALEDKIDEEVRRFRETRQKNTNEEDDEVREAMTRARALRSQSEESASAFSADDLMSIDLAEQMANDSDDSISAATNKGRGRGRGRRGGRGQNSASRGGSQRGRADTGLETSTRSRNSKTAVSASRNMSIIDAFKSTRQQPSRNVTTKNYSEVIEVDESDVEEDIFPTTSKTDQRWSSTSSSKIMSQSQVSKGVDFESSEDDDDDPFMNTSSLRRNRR
T1 sequence (Q92878 whole entry, chain 2 of 2): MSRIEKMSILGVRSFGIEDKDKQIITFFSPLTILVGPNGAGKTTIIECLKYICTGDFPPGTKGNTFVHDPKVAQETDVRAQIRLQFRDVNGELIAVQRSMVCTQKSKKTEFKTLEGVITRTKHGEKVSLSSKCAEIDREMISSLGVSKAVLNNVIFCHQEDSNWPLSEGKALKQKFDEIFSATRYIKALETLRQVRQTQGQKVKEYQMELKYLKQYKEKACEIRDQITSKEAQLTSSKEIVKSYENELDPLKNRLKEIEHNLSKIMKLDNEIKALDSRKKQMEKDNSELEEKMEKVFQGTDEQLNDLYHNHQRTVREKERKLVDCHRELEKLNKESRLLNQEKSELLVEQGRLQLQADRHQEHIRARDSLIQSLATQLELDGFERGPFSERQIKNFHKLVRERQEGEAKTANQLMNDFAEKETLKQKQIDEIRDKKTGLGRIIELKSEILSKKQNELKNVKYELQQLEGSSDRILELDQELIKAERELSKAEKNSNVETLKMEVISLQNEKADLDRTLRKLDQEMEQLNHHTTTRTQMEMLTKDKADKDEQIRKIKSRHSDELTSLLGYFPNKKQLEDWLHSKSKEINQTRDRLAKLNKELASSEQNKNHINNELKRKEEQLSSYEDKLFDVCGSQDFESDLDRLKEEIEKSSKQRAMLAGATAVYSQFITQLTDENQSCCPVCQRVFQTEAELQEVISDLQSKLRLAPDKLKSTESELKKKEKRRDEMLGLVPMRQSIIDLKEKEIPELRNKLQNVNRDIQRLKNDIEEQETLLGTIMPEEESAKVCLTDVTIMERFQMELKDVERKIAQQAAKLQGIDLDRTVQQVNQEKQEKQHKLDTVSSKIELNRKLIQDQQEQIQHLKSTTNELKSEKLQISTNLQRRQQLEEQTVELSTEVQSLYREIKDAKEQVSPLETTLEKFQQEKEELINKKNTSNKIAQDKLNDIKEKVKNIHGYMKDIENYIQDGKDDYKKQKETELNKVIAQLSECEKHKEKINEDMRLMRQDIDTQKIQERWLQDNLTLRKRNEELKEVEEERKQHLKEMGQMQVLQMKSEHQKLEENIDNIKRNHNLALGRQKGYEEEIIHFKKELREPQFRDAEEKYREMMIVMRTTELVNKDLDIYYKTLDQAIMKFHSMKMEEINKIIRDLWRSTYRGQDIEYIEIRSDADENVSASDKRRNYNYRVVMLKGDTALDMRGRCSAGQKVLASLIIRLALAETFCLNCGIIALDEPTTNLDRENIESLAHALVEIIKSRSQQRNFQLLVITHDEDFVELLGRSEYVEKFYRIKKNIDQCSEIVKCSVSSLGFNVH

B1: hRad51 (other, human, UniProt Q06609 2-339, looked up)
chain: AMQMQLEANADTSVEEESFGPQPISRLEQCGINANDVKKLEEAGFHTVEAVAYAPKKELINIKGISEAKADKILAEAAKLVPMGFTTATEFHQRRSEIIQITTGSKELDKLLQGGIETGSITEMFGEFRTGKTQICHTLAVTCQLPIDRGGGEGKAMYIDTEGTFRPERLLAVAERYGLSGSDVLDNVAYARAFNTDHQTQLLYQASAMMVESRYALLIVDSATALYRTDYSGRGELSARQMHLARFLRMLLRLADEFGVAVVITNQVVAQVDGAAMFAADPKKPIGGNIIAHASTTRLYLRKGRGETRICKIYDSPCLPEAEAMFAINADGVGDAKD
notes: also called human Rad51 homolog
B1: no binding.

From patent US7122343 (WARF WISCONSIN ALUMNI RESEARCH FOUNDATION, dated 2006)
